Patent US10597674B2, “HPPD variants and methods of use” (BASF Agricultural Solutions Seed, US LLC, priority 2015, dated 2020)

Experiments:
[1] = tested on: HPPD polypeptides (wild-type SEQ ID NO:1 and mutants); settings: low substrate concentration; for Residual activity: kapp in presence of 50 μM Cmpd. 1, normalised to kapp without inhibitor; for Residual turnover: total change in signal in presence of 50 μM Cmpd. 1, normalised to that without inhibitor
[2] = tested on: E. coli cells expressing an HPPD polypeptide; test: Brown color bioassay in liquid culture, residual brown color formation (BCF), OD440 after 96 hours; type: cell-based; settings: for Control BCF OD440nm: brown color formation in absence of Cmpd. 1, culture supernatant after 96 hours, 5 mM HPP; for Residual BCF OD440nm [%]: brown color formation with Cmpd. 1 (1000 μM) relative to without, after 96 hours
Protocol: In an additional experiment, mutant HPPD polypeptides were analyzed using the principle of a colorimetric brown color assay (as, for example, described in U.S. Pat. No. 6,768,044). Bacterial cells expressing the HPPD polypeptides according to this invention were assayed in 96 well plate format (Nunc® 96 DeepWell™ plate, Sigma-Aldrich, St. Louis, USA) for HPPD polypeptides with improved HPPD inhibitor herbicide tolerance.
E. coli cells were grown in liquid LB medium (Carl Roth GmbH+Co. KG, Karlsruhe, Germany) containing the selection agent for the expression vector pSE420(RI)NX (WO2014/043435) and 5 mM para-hydroxyphenylpyruvate (HPP; Sigma-Aldrich, St. Louis, USA), in the presence of absence of the HPPD inhibitor herbicide e.g. Cmpd. 1 (1000 μM). An overnight culture of E. coli culture expressing one of the respective HPPD polypeptides according to this invention were adjusted to an OD600 of 0.3-0.5 in a final volume of 500 μL and incubated at 30 degree Celsius. Residual brown color formation was determined by measuring the brown color formation (BCF) in the presence and absence of Cmpd. […] Therefore, after 96 hours the culture was centrifuged and the supernatant of the culture was used to measure the optical density of the soluble brown pigment formation at 440 nm (OD440 nm).

Molecule | Residual activity [1] | Residual turnover [1] | Control BCF OD440nm [2] | Residual BCF OD440nm [%] [2]
87 (protein, mutant HPPD polypeptide) MADLYENPMGLMGFEFIEFASPTPGTLEPIFEIMGFTKVATHRSKNVHLYRQGEINLILNNEPNSIASYFAAEHGPSVCGMAFRVKDSQKAYNRALELGAQPIHIDTGPMELNLPAIKGIGGAPLYLIDRFGEGSSIYDIDFVYLEGVERNPVGAGLKVIDHLTHNVYRGRMVYWANFYEKLFNFREARYFDIKGEYTGLTSKAMSAPDGMIRIPLNEESSKGAGQIEEFLMQFNGEGIQHVAFLTDDLVKTWDALKKIGMRFMTAPGDEYYEMLEGRLPDHGEPVDQLQARGILLDGSSVEGDKRLLLQIFSETLMGPVFFEFIQRKGDDGFGPDSFKVLFESAERDQVRRGVLTAD | 17% | 53% | 1.91 | 68%
67 (protein, mutant HPPD polypeptide) MADLYENPMGLMGFEFIEFASPTPGTLEPIFEIMGFTKVATHRSKNVHLYRQGEINLILNNEPNSIASYFAAEHGPSVCGMAFRVKDSQKAYNRALELGAQPIHIDTGPMELNLPAIKGIGGAPLYLIDRFGEGSSIYDIDFVYLEGVERNPVGAGLKVIDHLTHNVYRGRMVYWANFYEKLFNFREARYFDIKGEYTGLTSKAMSAPDGMIRIPLNEESSKGAGQIEEFLMQFNGEGIQHVAFLTDDLVKTWDALKKIGMRFKTAPGDEYYEMLEGRLPDHGEPVDQLQARGILLDGSSVEGDKRLLLQIFSETLMGPVFFEFIQRKGDDGFGPDSFKVLFESVERDQVRRGVLTAD | 73% | 96% | 1.93 | 71%
89 (protein, mutant HPPD polypeptide) MADLYENPMGLMGFEFIEFASPTPGTLEPIFEIMGFTKVATHRSKNVHLYRQGEINLILNNEPNSIASYFAAEHGPSVCGMAFRVKDSQKAYNRALELGAQPIHIDTGPMELNLPAIKGIGGAPLYLIDRFGEGSSIYDIDFVYLEGVERNPVGAGLKVIDHLTHNVYRGRMVYWANFYEKLFNFREARYFDIKGEYTGLTSKAMSAPDGMIRIPLNEESSKGAGQIEEFLMQFNGEGIQHVAFLTDDLVKTWDALKKIGMRFMTAPGDEYYEMLEGRLPDHGEPVDQLQARGILLDGSSVEGDKRLLLQIFSETLMGPVFFEFIQRKGDDGFGPDSFKVLFESKERDQVRRGVLTAD | 23% | 43% | 2.36 | 67%
72 (protein, mutant HPPD polypeptide) MADLYENPMGLMGFEFIEFASPTPGTLEPIFEIMGFTKVATHRSKNVHLYRQGEINLILNNEPNSIASYFAAEHGPSVCGMAFRVKDSQKAYNRALELGAQPIHIDTGPMELNLPAIKGIGGAPLYLIDRFGEGSSIYDIDFVYLEGVERNPVGAGLKVIDHLTHNVYRGRMVYWANFYEKLFNFREARYFDIKGEYTGLTSKAMSAPDGMIRIPLNEESSKGAGQIEEFLMQFNGEGIQHVAFLTDDLVKTWDALKKIGMRFMTAPRDEYYEMLEGRLPDHGEPVDQLQARGILLDGSSVEGDKRLLLQIFSETLMGPVFFEFIQRKGDDGFGPDSFKVLFESVERDQVRRGVLTAD | 25% | 55% | 2.77 | 72%
88 (protein, mutant HPPD polypeptide) MADLYENPMGLMGFEFIEFASPTPGTLEPIFEIMGFTKVATHRSKNVHLYRQGEINLILNNEPNSIASYFAAEHGPSVCGMAFRVKDSQKAYNRALELGAQPIHIDTGPMELNLPAIKGIGGAPLYLIDRFGEGSSIYDIDFVYLEGVERNPVGAGLKVIDHLTHNVYRGRMVYWANFYEKLFNFREARYFDIKGEYTGLTSKAMSAPDGMIRIPLNEESSKGAGQIEEFLMQFNGEGIQHVAFLTDDLVKTWDALKKIGMRFMTAPGDEYYEMLEGRLPDHGEPVDQLQARGILLDGSSVEGDKRLLLQIFSETLMGPVFFEFIQRKGDDGFGPDSFKVLFESIERDQVRRGVLTAD | 20% | 44% | 2.21 | 77%
44 (protein, mutant HPPD polypeptide) MADLYENPMGLMGFEFIEFASPTPGTLEPIFEIMGFTKVATHRSKNVHLYRQGEINLILNNEPNSIASYFAAEHGPSVCGMAFRVKDSQKAYNRALELGAQPIHIDTGPMELNLPAIKGIGGAPLYLIDRFGEGSSIYDIDFVYLEGVERNPVGAGLKVIDHLTHNVYRGRMVYWANFYEKLFNFREARYFDIKGEYTGLTSKAMSAPDGMILIPLNEESSKGAGQIEEFLMQFNGEGIQHVAFLTDDLVKTWDALKKIGMRFMTAPGDEYYEMLEGRLPDHGEPVDQLQARGILLDGSSVEGDKRLLLQIFSETLMGPVFFEFIQRKGDDGFGPDSFKVLFESVERDQVRRGVLTAD | 58% | 78% | 1.60 | 40%
92 (protein, mutant HPPD polypeptide) MADLYENPMGLMGFEFIEFASPTPGTLEPIFEIMGFTKVATHRSKNVHLYRQGEINLILNNEPNSIASYFAAEHGPSVCGMAFRVKDSQKAYNRALELGAQPIHIDTGPMELNLPAIKGIGGAPLYLIDRFGEGSSIYDIDFVYLEGVERNPVGAGLKVIDHLTHNVYRGRMVYWANFYEKLFNFREARYFDIKGEYTGLTSKAMSAPDGMIRIPLNEESSKGAGQIEEFLMQFNGEGIQHVAFLTDDLVKTWDALKKIGMRFRTAPGDEYYEMLEGRLPDHGEPVDQLQARGILLDGSSVEGDKRLLLQIFSETLMGPVFFEFIQRKGHDGFGPDSFKVLFESAERDQVRRGVLTAD | 61% | 81% | 1.38 | 59%
40 (protein, mutant HPPD polypeptide) MADLYENPMGLMGFEFIEFASPTPGTLEPIFEIMGFTKVATHRSKNVHLYRQGEINLILNNEPNSIASYFAAEHGPSVCGMAFRVKDSQKAYNRALELGAQPIHIDTGPMELNLPAIKGIGGAPLYLIDRFGEGSSIYDIDFVYLEGVERNPVGAGLKVIDHLTHNVYRGRMVYWANFYEKLFNFREARYFDIKGEYTGLTSKMMSAPDGMIRIPLNEESSKGAGQIEEFLMQFNGEGIQHVAFLTDDLVKTWDALKKIGMRFMTAPGDEYYEMLEGRLPDHGEPVDQLQARGILLDGSSVEGDKRLLLQIFSETLMGPVFFEFIQRKGDDGFGPDSFKVLFESVERDQVRRGVLTAD | 65% | 77% | 1.89 | 58%
39 (protein, mutant HPPD polypeptide) MADLYENPMGLMGFEFIEFASPTPGTLEPIFEIMGFTKVATHRSKNVHLYRQGEINLILNNEPNSIASYFAAEHGPSVCGMAFRVKDSQKAYNRALELGAQPIHIDTGPMELNLPAIKGIGGAPLYLIDRFGEGSSIYDIDFVYLEGVERNPVGAGLKVIDHLTHNVYRGRMVYWANFYEKLFNFREARYFDIKGEYTGLTSKLMSAPDGMIRIPLNEESSKGAGQIEEFLMQFNGEGIQHVAFLTDDLVKTWDALKKIGMRFMTAPGDEYYEMLEGRLPDHGEPVDQLQARGILLDGSSVEGDKRLLLQIFSETLMGPVFFEFIQRKGDDGFGPDSFKVLFESVERDQVRRGVLTAD | 34% | 61% | 1.63 | 55%
